The values below are quoted from earlier work in article PMC6753945.

The data set addresses CD28 (Homo sapiens) (UniProt P10747).

Consider CD80 (from UniProt P33681), for which the Kd (as a rule, the free concentration of one partner at which half of the binding sites on the other are occupied at equilibrium, for simple one-to-one binding) is 200 nM.
